Source: US20210340245A1 (Janssen / Centocor, published 2021)

Legend:
[1] = biological target: T1, recombinant human TNFα (human, UniProt P01375 77-233, 125I label in the receptor-blocking assay); experiment: cell-based or functional assay
[2] = biological target: T1, recombinant human TNFα; experiment: inhibition of 125I-TNFα binding to plate-coated p55-sf2
Method: 50:1 of p55-sf2 at 0.5 :g/ml in PBS was added to Optiplates to coat the wells during a one-hour incubation at 37° C. Serial dilutions of the eight TNV cell supernatants were prepared in 96-well round-bottom plates using PBS/0.1% BSA as diluent. […] The mixture was preincubated for one hour at RT. […] After 2 hrs at RT, Optiplates were washed three times with PBS-Tween. 100 :l of Microscint-20 was added and the cpm bound determined using the TopCount gamma counter.
The concentrations of the TNV mAbs in their respective cell supernatants were first determined by standard ELISA analysis for human IgG.

[3] = biological target: T1, recombinant human TNFα; experiment: competition radioligand assay: hybridoma supernatant preincubated with 125I-TNFα (5 ng/ml); binding of TNFα to plate-coated p55-sf2 read as cpm bound

| Binder | neutralizing TNFα bioactivity [1] [fold] | fold better at blocking TNF binding than TNV118 and TNV14 [2] [fold] | IC50 (read off the curve) [3] [ng/mL] |
| --- | --- | --- | --- |
| GenTNV148.26.12 (antibody, V domains shown) VH: QVQLVESGGGVVQPGRSLRLSCAASGFIFSSYAMHWVRQAPGNGLEWVAFMSYDGSNKKYADSVKGRFTISRDNPKNTLYLQMNSLRAEDTAVYYCARDRGIAAGGNYYYYGMDVWGQGTTVTVSS VL: EIVLTQSPATLSLSPGERATLSCRASQSVYSYLAWYQQKPGQAPRLLIYDASNRATGIPARFSGSGSGTDFTLTISSLEPEDFAVYYCQQRSNWPPFTFGPGTKVDIKR | 4 | ~4 | ~4 |
| GenTNV86.14.34 (antibody, human IgG1, V domains shown, Totally human IgG1 kappa, hybridoma-derived, tested in cell supernatant; Variable regions identical to TNV148; also called C417A (cell line code)) VH: QVQLVESGGGVVQPGRSLRLSCAASGFIFSSYAMHWVRQAPGNGLEWVAFMSYDGSNKKYADSVKGRFTISRDNPKNTLYLQMNSLRAEDTAVYYCARDRGIAAGGNYYYYGMDVWGQGTTVTVSS VL: EIVLTQSPATLSLSPGERATLSCRASQSVYSYLAWYQQKPGQAPRLLIYDASNRATGIPARFSGSGSGTDFTLTISSLEPEDFAVYYCQQRSNWPPFTFGPGTKVDIK |  | ~4 |  |
